Paper PMC2752837

Assays:
Assay in all cases: purified protein
Details in all cases: 50 mM CHES pH 9.5, 10 mM DTT, 37 °C
[1] = test system: CCOC(=O)[C@H](CCCNC(=N)N)NC(=O)c1ccccc1
[2] = test system: N=C(N)NCCC[C@H](N)C(=O)NO
[3] = test system: N=C(NO)NCCC[C@H](N)C(=O)O
[4] = test system: N=C(N)NCCCC[C@H](N)C(=O)O
[5] = test system: N=C(N)NOCC[C@H](N)C(=O)O

truncated PAD (peptidylarginine deiminase, 43-amino acid N-terminal deletion) (Porphyromonas gingivalis W83)
Km [1]: (18 ± 1)×10^3 µM
kcat/Km [1]: 0.99 M⁻¹ s⁻¹
Km [2]: (6.9 ± 0.5)×10^3 µM
kcat [2]: 0.15 s⁻¹
Km [3]: (1.5 ± 0.5)×10^3 µM
kcat [3]: 0.0046 s⁻¹
kcat/Km [3]: 3 M⁻¹ s⁻¹
Km [4]: (4.7 ± 0.8)×10^3 µM
kcat [4]: 0.11 s⁻¹
kcat/Km [4]: 24 M⁻¹ s⁻¹
Km [5]: (6 ± 1)×10^3 µM
kcat [5]: 0.0052 s⁻¹
kcat/Km [5]: 0.93 M⁻¹ s⁻¹
